# Test results taken from patent US20150118212A1.
# T1: human plasminogen, P00747
# T1 chain: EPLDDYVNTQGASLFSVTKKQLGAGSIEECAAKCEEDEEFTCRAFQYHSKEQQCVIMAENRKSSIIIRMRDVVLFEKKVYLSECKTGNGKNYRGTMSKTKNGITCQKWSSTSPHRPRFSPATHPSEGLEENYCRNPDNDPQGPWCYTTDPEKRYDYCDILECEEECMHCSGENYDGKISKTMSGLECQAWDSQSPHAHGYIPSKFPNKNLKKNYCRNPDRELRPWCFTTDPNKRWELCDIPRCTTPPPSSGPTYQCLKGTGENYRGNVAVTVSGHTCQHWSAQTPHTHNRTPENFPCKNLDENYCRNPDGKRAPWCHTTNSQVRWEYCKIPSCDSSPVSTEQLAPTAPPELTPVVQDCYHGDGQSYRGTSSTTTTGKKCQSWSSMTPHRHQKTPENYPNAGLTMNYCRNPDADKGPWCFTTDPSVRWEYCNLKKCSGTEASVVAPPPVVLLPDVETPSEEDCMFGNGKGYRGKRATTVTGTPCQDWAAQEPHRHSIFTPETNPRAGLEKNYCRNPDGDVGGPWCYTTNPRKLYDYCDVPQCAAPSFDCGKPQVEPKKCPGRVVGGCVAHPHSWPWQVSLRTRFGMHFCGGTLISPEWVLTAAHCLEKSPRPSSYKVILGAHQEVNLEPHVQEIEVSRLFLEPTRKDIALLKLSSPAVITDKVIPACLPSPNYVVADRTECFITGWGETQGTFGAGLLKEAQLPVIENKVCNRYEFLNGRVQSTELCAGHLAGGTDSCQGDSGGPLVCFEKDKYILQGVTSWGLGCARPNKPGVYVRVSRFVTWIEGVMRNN
# Target: T1, human plasminogen, P00747
row,Protein,Specific Activity (U/mg)
1,SAK 1CNT (protein) MCSSSFDKGKYKKGDDASYFEPTGPYLMVNVTGVDGKGNELLSPHYVEFPIKPGTTLTKEKIEYYVEWALDATAYKEFRVVELDPSAKIEVTYYDKNKKKEETKSFPITEKGFVVPDLSEHIKNPGFNLITKVVIEKK,40 ± 4.3 U/mg
2,SAK 1CCT (protein) SSSFDKGKYKKGDDASYFEPTGPYLMVNVTGVDGKGNELLSPHYVEFPIKPGTTLTKEKIEYYVEWALDATAYKEFRVVELDPSAKIEVTYYDKNKKKEETKSFPITEKGFVVPDLSEHIKNPGFNLITKVVIEKKAC,64 ± 4.5 U/mg
3,SAK 2CCT (protein) SSSFDKGKYKKGDDASYFEPTGPYLMVNVTGVDGKGNELLSPHYVEFPIKPGTTLTKEKIEYYVEWALDATAYKEFRVVELDPSAKIEVTYYDKNKKKEETKSFPITEKGFVVPDLSEHIKNPGFNLITKVVIEKKCC,65 ± 3.8 U/mg
4,SAK (Recombinant) (protein) SSSFDKGKYKKGDDASYFEPTGPYLMVNVTGVDGKGNELLSPHYVEFPIKPGTTLTKEKIEYYVEWALDATAYKEFRVVELDPSAKIEVTYYDKNKKKEETKSFPITEKGFVVPDLSEHIKNPGFNLITKVVIEKK,66 ± 3.5 U/mg
5,SAK S3C (protein) SSCFDKGKYKKGDDASYFEPTGPYLMVNVTGVDGKGNELLSPHYVEFPIKPGTTLTKEKIEYYVEWALDATAYKEFRVVELDPSAKIEVTYYDKNKKKEETKSFPITEKGFVVPDLSEHIKNPGFNLITKVVIEKK,60 ± 4.1 U/mg
6,SAK 2CNT (protein) MCCSSSFDKGKYKKGDDASYFEPTGPYLMVNVTGVDGKGNELLSPHYVEFPIKPGTTLTKEKIEYYVEWALDATAYKEFRVVELDPSAKIEVTYYDKNKKKEETKSFPITEKGFVVPDLSEHIKNPGFNLITKVVIEKK,57 ± 3 8 U/mg
